# Paper PMC4321490, “Structural analysis of DNA binding by C.Csp231I, a member of a novel class of R-M controller proteins regulating gene expression”
# Legend:
# [1] = target: C.Csp231I controller protein (Citrobacter sp. RFL231); test: crystal structure; C.Csp231I in complex with 21 bp OL or OR operator DNA duplexes; three crystal forms (P6(1) OL 2.30 Å, C2 OL 2.75 Å, P6(1) OR 1.80 Å); subunits within one protein dimer
# C.Csp231I [2] = target: T1, C.Csp231I (Citrobacter sp. RFL231, UniProt Q32WH4 1-98); test: crystal structure; C2 form, 2.75 A, two complexes per asymmetric unit; EMSA: 10 mM Tris-HCl pH 8.0, 0.1 M NaCl, 1 mM EDTA, room temperature 30 min, 2 uM DNA, 6.5% native PAGE in 0.25x TBE; AUC: same buffer, 20 C; settings: protein: recombinant; chain copies: 2
# T1 sequence: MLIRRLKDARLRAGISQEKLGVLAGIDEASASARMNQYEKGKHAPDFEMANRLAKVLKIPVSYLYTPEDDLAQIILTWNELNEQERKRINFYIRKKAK
# C.Csp231I (two dimers) [3] = target: T2, C.Csp231I (two dimers) (Citrobacter sp. RFL231, UniProt Q32WH4 1-98); test: EMSA; larger complex at 4:1 and above; 2 uM DNA; EMSA: 10 mM Tris-HCl pH 8.0, 0.1 M NaCl, 1 mM EDTA, room temperature 30 min, 2 uM DNA, 6.5% native PAGE in 0.25x TBE; AUC: same buffer, 20 C; settings: protein: recombinant; chain copies: 4
# T2 sequence: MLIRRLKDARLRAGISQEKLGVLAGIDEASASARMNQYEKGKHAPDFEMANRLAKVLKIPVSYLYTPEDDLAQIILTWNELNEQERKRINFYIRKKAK
# C.Csp231I [4] = target: T1, C.Csp231I; test: EMSA; single complex up to 2:1 subunits per duplex; 2 uM DNA; EMSA: 10 mM Tris-HCl pH 8.0, 0.1 M NaCl, 1 mM EDTA, room temperature 30 min, 2 uM DNA, 6.5% native PAGE in 0.25x TBE; AUC: same buffer, 20 C; settings: protein: recombinant; chain copies: 2
# C.Csp231I [5] = target: T1, C.Csp231I; test: EMSA; one dimer binds; 2 uM DNA; EMSA: 10 mM Tris-HCl pH 8.0, 0.1 M NaCl, 1 mM EDTA, room temperature 30 min, 2 uM DNA, 6.5% native PAGE in 0.25x TBE; AUC: same buffer, 20 C; settings: protein: recombinant; chain copies: 2
# C.Csp231I [6] = target: T1, C.Csp231I; test: EMSA; single dimer at the OL site; 2 uM DNA; EMSA: 10 mM Tris-HCl pH 8.0, 0.1 M NaCl, 1 mM EDTA, room temperature 30 min, 2 uM DNA, 6.5% native PAGE in 0.25x TBE; AUC: same buffer, 20 C; settings: protein: recombinant; chain copies: 2
# C.Csp231I (two dimers) [7] = target: T2, C.Csp231I (two dimers); test: EMSA; little effect of spacer mutation; 2 uM DNA; EMSA: 10 mM Tris-HCl pH 8.0, 0.1 M NaCl, 1 mM EDTA, room temperature 30 min, 2 uM DNA, 6.5% native PAGE in 0.25x TBE; AUC: same buffer, 20 C; settings: protein: recombinant; chain copies: 4
molecule,measurement,setting,value
C.Csp231I controller protein (natural protein),stoichiometry N,[1],2
OL 21-mer (dsDNA) DNA 1: ACACTAAGGAAAACTTAGTAA DNA 2: TTACTAAGTTTTCCTTAGTGT,binding result,C.Csp231I [2],binds
54-1 (native OL+OR) (dsDNA) DNA 1: ACACTAAGGAAAACTTAGTAAAATTGCTTTTTTAAACTAAGAAAATCTTAGCAA DNA 2: TTGCTAAGATTTTCTTAGTTTAAAAAAGCAATTTTACTAAGTTTTCCTTAGTGT,binding result,C.Csp231I (two dimers) [3],binds
same,binding result,C.Csp231I [4],binds
48-1 (6 bp spacer deletion) (dsDNA) DNA 1: ACACTAAGGAAAACTTAGTAAAATTTTAAACTAAGAAAATCTTAGCAA DNA 2: TTGCTAAGATTTTCTTAGTTTAAAATTTTACTAAGTTTTCCTTAGTGT,binding result,C.Csp231I [5],binds
54-2 (OR randomized) (dsDNA) DNA 1: ACACTAAGGAAAACTTAGTAAAATTGCTTTTTTAAATAAGACTCGTTAAAAAAC DNA 2: GTTTTTTAACGAGTCTTATTTAAAAAAGCAATTTTACTAAGTTTTCCTTAGTGT,binding result,C.Csp231I [6],binds
54-3 (spacer randomized) (dsDNA) DNA 1: ACACTAAGGAAAACTTAGTAACTGCATGCTACCAAACTAAGAAAATCTTAGCAA DNA 2: TTGCTAAGATTTTCTTAGTTTGGTAGCATGCAGTTACTAAGTTTTCCTTAGTGT,binding result,C.Csp231I (two dimers) [7],binds
